From PMC10040874, “Burst kinetics and CNNM binding are evolutionarily conserved properties of phosphatases of regenerating liver” (The Journal of Biological Chemistry, 2023)

T1: human PRL2 (human, UniProt Q12974 1-163)
T1 construct: human phosphatase of regenerating liver 2 (PRL2); also called hPRL2; source: E. coli BL21(DE3), purified (TALON Co2+ resin, Superdex-75)
T1 sequence: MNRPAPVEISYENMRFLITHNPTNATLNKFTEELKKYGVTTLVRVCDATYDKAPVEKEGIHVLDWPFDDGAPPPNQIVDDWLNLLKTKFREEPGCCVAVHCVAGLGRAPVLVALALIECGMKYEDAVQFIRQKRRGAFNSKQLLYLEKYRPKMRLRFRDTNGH

B1: human CNNM3 CBS-pair domain (domain or fragment)
chain: LRCRTVEDVLTPLEDCFMLDASTVLDFGVLASIMQSGHTRIPVYEEERSNIVDMLYLKDLAFVDPEDCTPLSTITRFYNHPLHFVFNDTKLDAVLEEFKRGKSHLAIVQKVNNEGEGDPFYEVLGLVTLEDVIEEIIRSEILDE
notes: CBS-pair domain of human CNNM3; the ITC methods call all the titrated domains GST-CBS-pairs, the human one included; also called hCNNM3; GST-CBS-pair; source: E. coli BL21(DE3), purified; not shown: GST, N-terminal, kept
B2: Drosophila melanogaster CNNM CBS-pair domain, GST-tagged (domain or fragment, D. melanogaster)
chain: VNIISGALELRKKTVADVMTHINDAFMLSLDALLDFETVSEIMNSGYSRIPVYDGDRKNIVTLLYIKDLAFVDTDDNTPLKTLCEFYQNPVHFVFEDYTLDIMFNQFKEGTIGHIAFVHRVNNEGDGDPFYETVGLVTLEDVIEELIQAEIVDE
notes: CBS-pair domain of the Drosophila CNNM protein encoded by the uex (unextended) gene; also called Drosophila CNNM; dCNNM; source: E. coli BL21(DE3), purified (glutathione-Sepharose, Superdex-75); not shown: GST, N-terminal, kept
B3: Drosophila melanogaster PRL (wild-type) (enzyme, D. melanogaster, UniProt O61722 1-176, looked up)
chain: MSITMRQKDLRPAPALIEYKGMKFLITDRPSDITINHYIMELKKNNVNTVVRVCEPSYNTDELETQGITVKDLAFEDGTFPPQQVVDEWFEVLKDKYQQNPEACVAVHCVAGLGRAPVLVALALIELGLKYEAAVEMIRDKRRGAINAKQLSFLEKYKPKARLKHKNGHKNSCSVQ
notes: the single PRL of D. melanogaster, cloned without the C-terminal prenylation site; also called Drosophila PRL; fly PRL; source: E. coli BL21(DE3), purified (TALON Co2+ resin, Superdex-75)
B4: CBS-pair domain of a C. elegans CNNM protein (the one of two expressed that bound with 1 μM affinity) (domain or fragment)
chain: LKIAVGAMEIADKVVKDVMTKIEDVFMLPDTTVLNAKTVMEIVKMGYTRIPVYQYGDKNNVTDMLFVKDLALLDPDDNFTVKTVCGYHKHPVKFVMNDTPLPNLLEAFKKGEGHLAMVKRLINTDDKHDPSYVLVGVVTLEDIVEEILQAEINDE
modifications: Table S2: only CNNM1 (376-530) and CNNM3 (375-527) gave protein; assigning the 1 uM binder to CNNM1 is inferred from listing order (Figure 4 not in text)
B5: CBS-pair domain of a C. elegans CNNM protein (the one of two expressed that bound with 13 μM affinity) (domain or fragment)
chain: FKMVLGALELYDKTVAHAMTRYEDIFMLPHTLTLGAGMVTQILDMGYTRIPIYENDRKNIVALLFVKDLALLDPDDNHNVMKIASIYNHEVRRVLVDMPLRNMLEEFKRGEYHMALVERLVEQEDKDPIYELCGLITLEDIIEEIIQCEIIDE
modifications: Assigning the 13 uM binder to CNNM3 is inferred from listing order (Figure 4 not in text)

How the values were obtained:
Test in all cases: ITC; VP-ITC, 20 °C, 20 mM Hepes pH 7.5, 100 mM NaCl, 5 mM TCEP; GST-CBS-pairs titrated with PRL; single site-binding model
Conditions in all cases: both partners purified
[1] = molecular target: T1, human PRL2
[2] = molecular target: B3
[3] = molecular target: B2
[4] = molecular target: T2, Caenorhabditis elegans PRL (C. elegans)
T2 construct: the single PRL of C. elegans, cloned without the C-terminal prenylation site; also called C. elegans PRL; source: E. coli BL21(DE3), purified (TALON Co2+ resin, Superdex-75)

Q: Does B1 bind [1]?
A: binds

Q: How did the Kd [2] turn out when B2 was run?
A: 350 nM

Q: Which “fold weaker affinity than the human complex” value [3] does the source give for B3 here?
A: 20 fold

Q: B4 was tested. Which Kd [4] did it give?
A: 1000 nM

Q: With B5 as the binder, how does the Kd [4] read?
A: 13000 nM
